B1: brain derived neurotrophic factor (protein, UniProt P23560 19-247, looked up)
Neurotrophic factor BDNF …: APMKEANIRGQGGLAYPGVRTHGTLESVNGPKAGSRGLTSLADTFEHVIEELLDEDQKVRPNEENNKDADLYTSRVMLSSQVPLEPPLLFLLEEYKNYLDAANMSMRVRRHSDPARRGELSVCDSISEWVTAADKKTAVDMSGGTVTVLEKVPVSKGQLKQYFYETKCNPMGYTKEGCRGIDKRHWNSQCRTTQSYVRALTMDSKKRIGWRFIRIDTSCVCTLTIKRGR
notes: neurotrophin; BDNF Human Protein (Geneway)

Assays:
[1] = Clearance of radiolabelled neurotrophin-3 by whole cochlear gamma counts; format: in vivo
Procedure: In vivo studies were carried out to determine the drug payload and clearance of neurotrophin delivered in a supraparticle implanted into the ear after 4 hr, 3 day and 7 days of implantation. The objective was to determine the amount of neurotrophin remaining in the cochlea over time.
1 SP containing radiolabelled neurotrophin-3 was implanted into each cochlea. Cochleae were harvested following 4 hrs (n=5), 3 d (n=7) or 7 d (n=4). Whole cochlear gamma counts were measured to determine the clearance of neurotrophin-3 over time. After 1 week of implantation each SP contained ˜2 ug of neurotrophin-3 (˜40%) of initial loaded amount.
Further experiments (n=2) were carried out to examine clearance of neurotrophin-3 following round window delivery. 3 days after implantation—whole cochlear measurements were again used to determine the clearance of neurotrophin-3 from the round window membrane.

[2] = BDNF perilymph concentration by ELISA after SP implantation; format: in vivo; details: 2 electrosprayed SPs loaded with BDNF, n=2
Procedure: Next, 2 SPs produced by electrospraying were loaded with BDNF and placed inside the cochlea. Serial perilymph samples (1 ul samples) were obtained from the apex of the cochlea at three days and one week post implantation (sampling techniques described in Plontke et al. (2007) Laryngoscope. 117:1191-1198) and samples were analysed using an ELISA.

[3] = after 1 week of implantation, 1 SP intracochlear

| Molecule | neurotrophin-3 remaining ([1]; 3 days after implantation, round window delivery) [%] | neurotrophin-3 remaining ([1]; 3 days, intracochlear delivery) [%] | amount of neurotrophin-3 remaining per SP [1, 3] [µg] | neurotrophin-3 remaining (% of initial loaded amount) [1, 3] [%] | peak BDNF perilymph concentration inside the cochlea ([2]; after 3 days) [ng/mL] | peak BDNF perilymph concentration inside the cochlea ([2]; after 7 days) [ng/mL] |
| --- | --- | --- | --- | --- | --- | --- |
| neurotrophin-3 | 47.4 | 56 | ~2 | ~40 | – | – |
| B1 | – | – | – | – | 1707 | 775 |
